Measured values taken from the supplement of paper PMC12764529.
± gives the half width of the 95% confidence interval.

How the values were obtained:
[1] = folding stability dG unfold from chymotrypsin proteolysis; higher = more stable
How it was run: (§1)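 K50 was inferred by Bayesian fitting of sequencing counts obtained after protease digestion of designed mini-proteins. Unfolding free energy was derived by comparison with a sequence-predicted unfolded-state K50 and a shared folded-state K50, for each protease or both combined. The mini-proteins were under 80 residues, had no cysteine, were carried in a PA-tagged cDNA display construct, and were kept only if AlphaFold2 dimer inter-PAE exceeded 15.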

[2] = folding stability dG unfold from trypsin proteolysis; higher = more stable
How it was run: as §1

[3] = folding stability dG unfold (combined trypsin and chymotrypsin); higher = more stable
How it was run: as §1

Row | Sequence | folding stability dG unfold [1] [kcal/mol] | folding stability dG unfold [2] [kcal/mol] | folding stability dG unfold [3] [kcal/mol]
1 | SAGDAIADLLKEAGFEIDSVDSIEPTDGSYVIGFKFEFPNGWYMEITIWIDPNNPDKIEIDIKMQPPDESAG [r5_683_TrROS] | 4.43 ± 0.33 | 2.6 ± 0.28 | 4.06 ± 0.45
2 | SAAPGAEVIEEKEIEVGGYTVTIVYNKDTDTVTIFVRNPDGTITEFTIDADTLEITEVREIKLPPGVELSAG [r14_676_TrROS_Hall] | 3.35 ± 0.06 | 2.24 ± 0.084 | 3 ± 0.12
3 | SAGLRIEPTPDYIKITMPGPNMANEIIKKIQEHFGDIEIDDIKPEPYPNGNNRVTIWIPLKNLPPELLKSAG [r5_857_TrROS] | 1.18 ± 0.085 | 0.895 ± 0.028 | 1.06 ± 0.07
4 | SAGGSAGGSMKIPEDETYEEKLPDGRKVTYTWEPESGLLKTTTTDPNNDTPTTSTYKVPPSSLLSAGGSAGG [r6_407_JUSTAS] | 0.49 ± 0.31 | 0.0466 ± 0.2 | 0.262 ± 0.25
5 | SAGGSAGGSAGGGMRFTVEVEPGKVSYSPGIVNKNTPGSSVSEIITVTVVETNPEKLLLSAGGSAGGSAGGS [r10_654_JUSTAS] | 0.638 ± 0.093 | -0.499 ± 0.29 | 0.211 ± 0.19
6 | SAGGGPLKPILLKVTAKVEKNGKLLEVEAEIAVPLPNKPITLEEIRKILEEALPPDVKIVSLELDPESAGGS [r16_407_TrMRF] | 2.6 ± 0.075 | 2.99 ± 0.2 | 2.67 ± 0.21
7 | SAGGSAGGSGMTTTLTTEPRPDSTVVTTTTTTPTSVTTTTTVYDPDGNVVSTTTTTTPLPATSSAGGSAGGS [r12_710_JUSTAS] | 0.257 ± 0.018 | 1.73 ± 0.059 | 1.11 ± 0.028
8 | SAGGSKLKNLKSKPFPITFENGGKVTLNVVNIPKSSKPVVNITVIEPNSGKKKTFTVPLEEAKNLLSAGGSA [r2_366_TrMRF] | 1.16 ± 0.12 | 0.394 ± 0.071 | 0.869 ± 0.089
9 | SAGGMKPGEIVEKITIEIEINGKKYKIEMTFYKDNGIIEIKIYNKNGKLIKTFKFYIDPKTKKIILLSAGGS [r16_798_TrROS_Hall] | 3.81 ± 0.098 | 3.66 ± 0.14 | 3.68 ± 0.34
10 | SARVYRLPDGRLVRFEPVPPRPPVIVIPVDFRISPDDPETRRRLAEEIRRRLLEELGLPEDTPIFVDPSSAG [r14_453_TrMRF] | 4.45 ± 0.14 | 4.11 ± 0.18 | 4.16 ± 0.22
11 | SAGGSAGGSDMTMTYIIPLPDYAIVISFKIEITEVEYNPENGKPVKFRFDIEIKIEVFPPGDLSAGGSAGGS [r12_809_TrROS] | 4.68 ± 0.19 | 3.46 ± 0.21 | 4.38 ± 0.29
12 | SAGKPRPVEIDFPMPPGFPNMPPEEMANMIARELDENGLKIEPKNMNPGEPYVRYTVEVNGKPILEITFSAG [r5_80_TrROS] | 1.51 ± 0.12 | 0.762 ± 0.081 | 1.14 ± 0.12
13 | SAGGSAGGSAGMRPVTSVYYDPNTGRLYARFPDGVVANYELTPDGSVRLVSVAPAHPDLDSAGGSAGGSAGG [r17_61_TrMRF] | 1.64 ± 0.059 | 0.992 ± 0.04 | 1.42 ± 0.066
14 | SAGGSAGGSAGGKTLTLEIEINGKLYKIEFSGDSIKITEIKVKPKPKKKEFFSEEELKKKSAGGSAGGSAGG [r7_748_TrROS_Hall] | 2.55 ± 0.13 | 0.563 ± 0.089 | 1.87 ± 0.31
15 | SAGGSAGGSDPNNEPVYIMMKFEIEIKVERDPENGKPKAEDPITITFIIRIPPNGNLEIGIMISAGGSAGGS [r12_438_TrROS] | 4.33 ± 0.13 | 3.52 ± 0.11 | 4.11 ± 0.12
16 | SAGGSAGGRVRIHYNPEDGYIMITFPRNNPEEIAKEILEAFNIKDVNIQVDPEEGWVSIMIKIDSAGGSAGG [r6_662_TrROS] | 1.26 ± 0.1 | 2.95 ± 0.25 | 2.17 ± 0.41
17 | SAMKITDVTVERNPDNGWYEVMVTFEFDNGPVTVKIWMPRDGNMPIDVYDMGNGEPKGEIWIPADQIKFSAG [r14_608_TrROS] | 1.35 ± 0.1 | 0.893 ± 0.022 | 1.15 ± 0.075
18 | SAGGSGSQEVDIDFKFPPNFNMDELAKKIEELPGIDIKPDRYDPENGTYKITINVNDPQAVREIIRSAGGSA [r2_305_TrROS] | -0.497 ± 0.69 | 0.0473 ± 0.16 | -0.483 ± 0.5
19 | SAGGSALAEKAKELALEKGYDPVKVTYDPKTGTLTMTAKPPGGKEVKMTFTIDEDTITITTTPLTKSAGGSA [r15_561_JUSTAS] | 2.95 ± 0.078 | 0.996 ± 0.033 | 2.49 ± 0.16
20 | SAGGNWTIEVEIEENPDGPYRITIRYRAPNGEEHKVTMWFDPDNGTFPIKLPGPLPPDQIEDIEIWPSAGGS [r16_95_TrROS] | 5.04 ± 0.24 | 3.41 ± 0.36 | 4.91 ± 0.19
21 | SAGGSAGGSAMTITVEVPPSVPAEEAAERVAERLRAEFPVPDIRVTVETTPDGTVTVTITEASAGGSAGGSA [r18_1_JUSTAS] | 0.436 ± 0.09 | -0.291 ± 0.16 | 0.275 ± 0.1
